Among the data in patent US8008547B2, “Glyphosate-N-acetyltransferase (GAT) genes” (E.I. duPont de Nemours, priority 2000, dated 2011) are Kcat and Km values, retold here.

Where a chain is given by its changes, count along the chain named.

A short description of this data set: Standard protocol for determination of kcat and KM (continuous spectrophotometric assay, Acetyl CoA hydrolysis at 235 nm). The format is biochemical. Conditions: purified protein, about 23° C., 0.2 mM acetyl CoA; for Kcat: 20 mM HEPES pH 6.8, 10% ethylene glycol; for Km: pH 6.8, glyphosate 0.125 to 10 mM. How it is done: KM was calculated from the initial reaction rates obtained from concentrations of glyphosate ranging from 0.125 to 10 mM, using the Lineweaver-Burke transformation of the Michaelis-Menten equation. kcat/KM was determined by dividing the value determined for kcat by the value determined for KM.
Using this methodology, kinetic parameters for a number of GAT polypeptides exemplified herein were determined. For example, the kcat, KM and kcat/KM for the GAT polypeptide corresponding to SEQ ID NO:445 have been determined to be 322 min^−1, 0.5 mM and 660 mM^−1 min^−1, respectively, using the assay conditions described above. The kcat, KM and kcat/KM for the GAT polypeptide corresponding to SEQ ID NO:457 have been determined to be 118 min^−1, 0.1 mM and 1184 mM^−1 min^−1, respectively, using the assay conditions described above. The kcat, KM and kcat/KM for the GAT polypeptide corresponding to SEQ ID NO:300 have been determined to be 296 min^−1, 0.65 mM and 456 mM^−1 min^−1, respectively, using the assay conditions described above. One of skill in the art can use these numbers to confirm that a GAT activity assay is generating kinetic parameters for a GAT suitable for comparison with the values given herein. For example, the conditions used to compare the activity of GATs should yield the same kinetic constants for SEQ ID NO: 300, 445 and 457 (within normal experimental variance) as those reported herein, when the conditions are used to compare a test GAT with the GAT polypeptides exemplified herein. Kinetic parameters for a number of GAT polypeptide variants were determined according to this methodology and are provided in Table 3.

B1: SEQ ID NO: 387: GAT polypeptide (protein)
chain: MIEVKPINAEDTYEIRXRILRPNQPLEACMYETDLLGGTFHLGGYYRGKLISIASFHQAEHPELEGQKQYQLRGMATLEGYREQKAGSTLIRHAEELLRKKGADLLWCNARTSASGYYKKLGFSEQGGVYDIPPVGPHILMYKKLT
modifications: X: residue not identified in the source; ends and bridges not checked
notes: GAT polypeptide
In the case of B1, the Kcat was found to be 0.717 s⁻¹ and the Km came out at 1200 µM.

B2: SEQ ID NO: 397: GAT polypeptide (protein)
chain: B1 chain with X17H, G37E, P62S, G128E
modifications: 6_22D9
notes: GAT polypeptide
B2: the Kcat amounted to 0.732 s⁻¹ and the Km amounted to 1300 µM.

B3: SEQ ID NO: 406: GAT polypeptide (protein)
chain: B1 chain with X17H, I19V, S52G, K119E, E125G, G128E, V135I
modifications: 6_4B1
notes: GAT polypeptide
Turning to B3, the Kcat amounted to 0.45 s⁻¹ and the Km was 1000 µM.

B4: SEQ ID NO: 391: GAT polypeptide (protein)
chain: B1 chain with X17H, M30K, F40L, H93Q, K144E
modifications: 6_19C8
notes: GAT polypeptide
As to B4, the Kcat was determined as 1.25 s⁻¹ and the Km stood at 2000 µM.

B5: SEQ ID NO: 395: GAT polypeptide (protein)
chain: B1 chain with X17H, I19V, T39A, G128E, I132V
modifications: 6_21F4
notes: GAT polypeptide
With B5, the Kcat amounted to 0.405 s⁻¹ and the Km is 700 µM.

B6: SEQ ID NO: 393: GAT polypeptide (protein)
chain: B1 chain with E10G, X17H, M30K, P62S
modifications: 6_20A9
notes: GAT polypeptide
For the molecule B6, the Kcat worked out at 0.752 s⁻¹ and the Km was 1300 µM.

B7: SEQ ID NO: 401: GAT polypeptide (protein)
chain: B1 chain with X17H, I19V, Q69P, G128E, V129I, V135I
modifications: 6_2H1
notes: GAT polypeptide
As for B7, the Kcat came out at 0.443 s⁻¹ and the Km came out at 900 µM.

B8: SEQ ID NO: 411: GAT polypeptide (protein)
chain: B1 chain with X17H, G37R, T39A, P62S
modifications: 6_7D1
notes: GAT polypeptide
On to B8, for which the Kcat was 0.328 s⁻¹ and the Km came out at 500 µM.

B9: SEQ ID NO: 413: GAT polypeptide (protein)
chain: B1 chain with X17H, M30K, F40L, P62S, G128E
modifications: 6_9G11
notes: GAT polypeptide
In the case of B9, the Kcat stood at 1.31 s⁻¹ and the Km worked out at 1300 µM.

B10: SEQ ID NO: 399: GAT polypeptide (protein)
chain: B1 chain with X17H, E32G, H61Q
modifications: 6_23H3
notes: GAT polypeptide
As to B10, the Kcat turned out to be 0.732 s⁻¹ and the Km was found to be 1100 µM.

B11: SEQ ID NO: 390: GAT polypeptide (protein)
chain: B1 chain with X17H, M30K, G128E, V135I
modifications: 6_19C3
notes: GAT polypeptide
Regarding B11, the Kcat was found to be 0.385 s⁻¹ and the Km was determined as 1400 µM.

B12: SEQ ID NO: 270: GAT polypeptide (protein)
chain: B1 chain with X17H, G37R, I51V, G80E
modifications: 10_15F4
notes: GAT polypeptide
Take B12: the Kcat was determined as 0.627 s⁻¹ and the Km stood at 1000 µM.

B13: SEQ ID NO: 396: GAT polypeptide (protein)
chain: B1 chain with X17H, Q24R, E63G, Q67K, G80E
modifications: 6_22C9
notes: GAT polypeptide
With B13, the Kcat stood at 0.79 s⁻¹ and the Km is 3200 µM.

B14: SEQ ID NO: 392: GAT polypeptide (protein)
chain: B1 chain with X17H, G37R, P62S, E63D, G80E, G128E
modifications: 6_20A7
notes: GAT polypeptide
B14: the Kcat stood at 0.673 s⁻¹ and the Km turned out to be 1000 µM.

B15: SEQ ID NO: 388: GAT polypeptide (protein)
chain: B1 chain with V4A, X17H, G128E, V135T
modifications: 6_19A10
notes: GAT polypeptide
In the case of B15, the Kcat was 1.45 s⁻¹ and the Km is 1900 µM.

B16: SEQ ID NO: 271: GAT polypeptide (protein)
chain: B1 chain with X17H, M30K, G128E, I132T
modifications: 10_17D1
notes: GAT polypeptide
With B16, the Kcat was 2.937 s⁻¹ and the Michaelis constant (Km) worked out at 2200 µM.

B17: SEQ ID NO: 400: GAT polypeptide (protein)
chain: B1 chain with X17H, P62S, L97I
modifications: 6_23H7
notes: GAT polypeptide
With B17, the Kcat came to 0.77 s⁻¹ and the Km stood at 1200 µM.

B18: SEQ ID NO: 394: GAT polypeptide (protein)
chain: B1 chain with X17H, M30K, P62S, G128E, V135I
modifications: 6_20H5
notes: GAT polypeptide
Turning to B18, the Kcat stood at 0.325 s⁻¹ and the Km amounted to 800 µM.

B19: SEQ ID NO: 404: GAT polypeptide (protein)
chain: B1 chain with X17H, G80E, G128E
modifications: 6_3H2
notes: GAT polypeptide
On to B19, for which the Kcat is 0.953 s⁻¹ and the Km came out at 1000 µM.

B20: SEQ ID NO: 403: GAT polypeptide (protein)
chain: B1 chain with X17H, P62S, G128E
modifications: 6_3G3
notes: GAT polypeptide
Regarding B20, the Kcat stood at 0.865 s⁻¹ and the Km was 1000 µM.

B21: SEQ ID NO: 398: GAT polypeptide (protein)
chain: B1 chain with X17H, P62S, E79D, G80E, G128E, V135I
modifications: 6_22H9
notes: GAT polypeptide
As to B21, the Kcat worked out at 0.29 s⁻¹ and the Km amounted to 1100 µM.

B22: SEQ ID NO: 409: GAT polypeptide (protein)
chain: B1 chain with X17H, P62S, G80E, T112I
modifications: 6_5G9
notes: GAT polypeptide
Turning to B22, the Kcat came out at 0.597 s⁻¹ and the Km stood at 1400 µM.

B23: SEQ ID NO: 405: GAT polypeptide (protein)
chain: B1 chain with X17H, G128E
modifications: 6_4A10
notes: GAT polypeptide
For B23, the Kcat was 0.917 s⁻¹ and the Km turned out to be 1100 µM.

B24: SEQ ID NO: 402: GAT polypeptide (protein)
chain: B1 chain with V4I, X17H, G128E
modifications: 6_3D6
notes: GAT polypeptide
On to B24, for which the Kcat came out at 0.695 s⁻¹ and the Km was determined as 1000 µM.

B25: SEQ ID NO: 408: GAT polypeptide (protein)
chain: B1 chain with X17H, G80E, G128E, Y130H
modifications: 6_5F11
notes: GAT polypeptide
In the case of B25, the Kcat is 0.668 s⁻¹ and the Km turned out to be 1900 µM.

B26: SEQ ID NO: 407: GAT polypeptide (protein)
chain: B1 chain with X17H, G80E, G128E, V135I
modifications: 6_5D11
notes: GAT polypeptide
In the case of B26, the Kcat is 0.253 s⁻¹ and the Km stood at 1000 µM.

B27: SEQ ID NO: 389: GAT polypeptide (protein)
chain: B1 chain with X17H, G37R, T39A, P62S, G128E
modifications: 6_19B6
notes: GAT polypeptide
With B27, the Kcat was determined as 0.398 s⁻¹ and the Km was found to be 700 µM.

B28: SEQ ID NO: 410: GAT polypeptide (protein)
chain: B1 chain with T12A, X17H, M30K, P62S
modifications: 6_6D5
notes: GAT polypeptide
As to B28, the Kcat was 0.922 s⁻¹ and the Km stood at 1000 µM.

B29: SEQ ID NO: 416: GAT polypeptide (protein)
chain: B1 chain with X17H, M30K, V135I
modifications: 7_2A10
notes: GAT polypeptide
Turning to B29, the Kcat amounted to 0.242 s⁻¹ and the Km amounted to 800 µM.

B30: SEQ ID NO: 412: GAT polypeptide (protein)
chain: B1 chain with X17H
modifications: 6_8H3
notes: GAT polypeptide
As for B30, the Kcat came to 0.745 s⁻¹ and the Km is 1000 µM.

B31: SEQ ID NO: 414: GAT polypeptide (protein)
chain: B1 chain with X17H, I51V, S52C, Q58K, P62S, E79D, A114V, K119E, G128E
modifications: 6F1
notes: GAT polypeptide
As to B31, the Kcat is 0.168 s⁻¹ and the Km amounted to 1800 µM.

B32: SEQ ID NO: 415: GAT polypeptide (protein)
chain: B1 chain with X17H, G80E, V135I
modifications: 7_1C4
notes: GAT polypeptide
Turning to B32, the Kcat amounted to 0.29 s⁻¹ and the Km is 1100 µM.
